Assay results: PMC8341956

Molecular target: nucleosome core particle (recombinant Xenopus laevis histone octamer on 147 bp 601 DNA) (Xenopus laevis)
Test: native gel or EMSA; HMGN1 variants incubated with AlexaFluor488-labelled nucleosome cores (50 nM) at 0.5:1, 1:1 and 2:1 HMGN1 per nucleosome; 10 mM Tris pH 7.5, 25 mM NaCl, 25 mM KCl, 0.2 mM DTT, 4% sucrose, on ice 20-30 min; 5% native PAGE, 0.5x TBE, 4 °C

Substance | stoichiometry N (HMGN1 molecules per nucleosome)
full-length recombinant HMGN1 (HMGN1_1–99, unmodified) (natural protein) | 2
semi-synthetic unmodified HMGN1 (natural protein) | 2
